Measured values published in patent US20260015399A1 (Boehringer Ingelheim, published 2026).
*1 amine or outer side, *2 acyl side, *3 side chain or, on linkers, in order; H or OH if unused. Side-chain parts run from the residue outwards. The star is where a group is joined. C18 diacid = O=C(O)CCCCCCCCCCCCCCCCC(=O)*; γGlu = O=C(O)[C@H](CCC(=O)[*:2])N[*:1]; Isovaleryl = CC(C)CC(=O)*; Ahx = NCCCCCC(=O)O

What was measured:
[1] = target: T1, human NPY2 receptor (human, UniProt P49146 1-381); assay: cell-based or functional assay
T1 sequence (looked up): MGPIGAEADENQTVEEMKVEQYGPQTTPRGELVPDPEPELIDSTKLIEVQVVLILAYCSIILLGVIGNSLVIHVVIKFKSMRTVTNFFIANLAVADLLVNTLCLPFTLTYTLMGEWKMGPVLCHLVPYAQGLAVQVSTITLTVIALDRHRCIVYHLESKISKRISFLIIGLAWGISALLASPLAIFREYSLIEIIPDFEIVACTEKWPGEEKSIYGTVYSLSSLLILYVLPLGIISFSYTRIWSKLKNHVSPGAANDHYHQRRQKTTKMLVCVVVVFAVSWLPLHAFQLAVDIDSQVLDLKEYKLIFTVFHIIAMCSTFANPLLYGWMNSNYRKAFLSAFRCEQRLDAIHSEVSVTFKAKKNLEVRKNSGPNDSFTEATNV

[2] = target: T2, human NPY1 receptor (human, UniProt P25929 1-384); assay: cell-based or functional assay
T2 sequence (looked up): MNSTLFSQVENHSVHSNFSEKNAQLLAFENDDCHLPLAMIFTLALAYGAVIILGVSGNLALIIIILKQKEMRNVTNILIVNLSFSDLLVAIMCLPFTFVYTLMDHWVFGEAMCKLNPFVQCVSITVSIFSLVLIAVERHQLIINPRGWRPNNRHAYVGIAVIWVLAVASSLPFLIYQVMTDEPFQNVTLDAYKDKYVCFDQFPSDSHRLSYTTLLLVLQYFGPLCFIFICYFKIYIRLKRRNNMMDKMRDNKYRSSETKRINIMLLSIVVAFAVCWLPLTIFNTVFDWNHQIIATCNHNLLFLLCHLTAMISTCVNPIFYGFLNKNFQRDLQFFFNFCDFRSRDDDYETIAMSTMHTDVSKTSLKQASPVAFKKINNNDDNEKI

[3] = target: human NPY4 receptor (human, UniProt P50391 1-375); assay: cell-based or functional assay
human NPY4 receptor, sequence (P50391 whole entry): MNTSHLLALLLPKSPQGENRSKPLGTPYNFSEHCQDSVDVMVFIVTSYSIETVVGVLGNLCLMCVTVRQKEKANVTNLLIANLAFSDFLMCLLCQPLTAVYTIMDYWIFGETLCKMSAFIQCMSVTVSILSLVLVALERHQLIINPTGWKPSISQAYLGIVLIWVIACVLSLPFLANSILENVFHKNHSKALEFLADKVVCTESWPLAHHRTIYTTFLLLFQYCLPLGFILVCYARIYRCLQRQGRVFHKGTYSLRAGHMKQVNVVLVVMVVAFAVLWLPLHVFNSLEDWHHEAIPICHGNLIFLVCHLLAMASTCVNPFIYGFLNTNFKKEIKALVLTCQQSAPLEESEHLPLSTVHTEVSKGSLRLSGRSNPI

[4] = target: T3, human NPY5 receptor (human, UniProt Q15761 1-445); assay: cell-based or functional assay
T3 sequence (looked up): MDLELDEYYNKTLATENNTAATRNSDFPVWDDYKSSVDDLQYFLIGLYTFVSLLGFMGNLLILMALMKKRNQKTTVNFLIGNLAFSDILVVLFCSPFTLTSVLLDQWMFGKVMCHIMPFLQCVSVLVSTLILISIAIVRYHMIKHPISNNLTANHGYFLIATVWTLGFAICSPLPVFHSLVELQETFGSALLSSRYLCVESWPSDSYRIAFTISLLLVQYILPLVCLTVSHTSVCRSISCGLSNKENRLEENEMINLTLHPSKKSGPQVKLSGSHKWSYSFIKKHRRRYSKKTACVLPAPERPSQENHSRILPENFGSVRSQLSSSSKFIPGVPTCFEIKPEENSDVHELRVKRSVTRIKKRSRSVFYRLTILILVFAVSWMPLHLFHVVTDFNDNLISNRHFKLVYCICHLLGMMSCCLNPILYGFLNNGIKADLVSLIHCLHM

[5] = target: T1, human NPY2 receptor; assay: RLB: displacement of 125I-PYY(1-36) from hNPY2R membranes
[6] = target: T1, human NPY2 receptor; assay: RLB, apparent Ki of filtrate after incubation at pH 8.1-8.2 (assumed 10 mg/ml)
Procedure: (§1) The filtration RLB assay was carried out in 96-well plates in a final volume of 100 μl per well. Freeze-dried test peptides were dissolved in 100% dimethyl sulfoxide (DMSO) to stock solutions of 1 mM and serial dilutions were performed in assay buffer (50 mM HEPES, 5 mM MgCl₂, 1 mM CaCl₂), pH 7.4) containing 0.2% ovalbumin. […] Next, 80 μL membranes (HTS066M, ChemiSCREEN™ Human Neuropeptide Y2 Receptor Membrane Preparation, CHEMICON) were added to each well to give a final protein concentration of 0.5 μg/well. The plates were sealed and incubated at room temperature for 2 hours in a plate shaker set at 400 rpm. The incubation was stopped by vacuum filtration onto 0.5% polyethylene amine (PEI) presoaked GF/C filters using a 96-well FilterMate™ harvester (Perkin Elmer) followed by four washes with 300 μl/well ice-cold wash buffer (50 mM HEPES, 500 mM NaCl, pH7.4). Filter plates were then dried for 60 min at room temperature and the bottom of the plates was sealed with backing tape UniFilter-96. Finally, 50 μl/well scintillation counter cocktail (Microscint20, Packard) was added and the radioactivity was counted in the Packard TopCount NXT scintillation counter. IC₅₀ values (the half maximal inhibitory concentration of the agonist) were calculated by nonlinear regression analysis of sigmoidal dose-response curves.
The peptide was (partially) dissolved by shaking the filter unit horizontally at approx. 400 rpm for 2 hours at room temperature. The sample was filtered to remove any insoluble particles.

[7] = target: T1, human NPY2 receptor; assay: RLB (125I-PYY(1-36) displacement, hNPY2R membranes), peptide from DMSO stock
Procedure: as §1, with “curves. […]” for “curves.”

| Binder | EC50, HTRF cAMP Gi assay [1] [nM] | EC50, HTRF cAMP Gi assay [2] [nM] | EC50, HTRF cAMP Gi assay [3] [nM] | EC50, HTRF cAMP Gi assay [4] [nM] | Ki [5] [nM] | Ki [6] [nM] | Ki [7] [nM] |
| --- | --- | --- | --- | --- | --- | --- | --- |
| Isovaleryl-APEK([Ahx-γGlu-C18 diacid])PEADATPEEIQRYYVSLRHYYNWLTRQRY-NH2 [Compound 7] | 0.143 | > 5000 | > 5000 | > 5000 | 1.04 | 3.1 |  |
| Isovaleryl-APEK([Ahx-γGlu-C18 diacid])PEADASPEELQRYYVALRHYYNWLTRQRY-NH2 [Compound 163] | 0.13 | > 5000 | > 5000 | > 5000 | 0.67 | 4.9 |  |
| Isovaleryl-APEK([Ahx-γGlu-C18 diacid])PEEEASPEEIQRYYVSLRHYYNWLTRQRY-NH2 (SMILES CC[C@H](C)[C@H](NC(=O)[C@H](CCC(=O)O)NC(=O)[C@H](CCC(=O)O)NC(=O)[C@@H]1CCCN1C(=O)[C@H](CO)NC(=O)[C@H](C)NC(=O)[C@H](CCC(=O)O)NC(=O)[C@H](CCC(=O)O)NC(=O)[C@H](CCC(=O)O)NC(=O)[C@@H]1CCCN1C(=O)[C@H](CCCCNC(=O)CCCCCNC(=O)CC[C@H](NC(=O)CCCCCCCCCCCCCCCCC(=O)O)C(=O)O)NC(=O)[C@H](CCC(=O)O)NC(=O)[C@@H]1CCCN1C(=O)[C@H](C)NC(=O)CC(C)C)C(=O)N[C@@H](CCC(N)=O)C(=O)N[C@@H](CCCNC(=N)N)C(=O)N[C@@H](Cc1ccc(O)cc1)C(=O)N[C@@H](Cc1ccc(O)cc1)C(=O)N[C@H](C(=O)N[C@@H](CO)C(=O)N[C@@H](CC(C)C)C(=O)N[C@@H](CCCNC(=N)N)C(=O)N[C@@H](Cc1c[nH]cn1)C(=O)N[C@@H](Cc1ccc(O)cc1)C(=O)N[C@@H](Cc1ccc(O)cc1)C(=O)N[C@@H](CC(N)=O)C(=O)N[C@@H](Cc1c[nH]c2ccccc12)C(=O)N[C@@H](CC(C)C)C(=O)N[C@H](C(=O)N[C@@H](CCCNC(=N)N)C(=O)N[C@@H](CCC(N)=O)C(=O)N[C@@H](CCCNC(=N)N)C(=O)N[C@@H](Cc1ccc(O)cc1)C(N)=O)[C@@H](C)O)C(C)C) [Compound 193] | 0.331 | > 5000 | > 5000 | > 5000 | 3.42 |  |  |
| Isovaleryl-APAK([Ahx-γGlu-C18 diacid])PEEDASPEEIQRYYVSLRHYYNWLTRQRY-NH2 [Compound 63] | 0.109 | > 5000 | > 5000 | > 5000 | 0.93 |  | 6.6 |
| Isovaleryl-APAK([Ahx-γGlu-C18 diacid])PEEDASPEEIQRYYISLRHYYNWLTRQRY-NH2 (SMILES CC[C@H](C)[C@H](NC(=O)[C@H](Cc1ccc(O)cc1)NC(=O)[C@H](Cc1ccc(O)cc1)NC(=O)[C@H](CCCNC(=N)N)NC(=O)[C@H](CCC(N)=O)NC(=O)[C@@H](NC(=O)[C@H](CCC(=O)O)NC(=O)[C@H](CCC(=O)O)NC(=O)[C@@H]1CCCN1C(=O)[C@H](CO)NC(=O)[C@H](C)NC(=O)[C@H](CC(=O)O)NC(=O)[C@H](CCC(=O)O)NC(=O)[C@H](CCC(=O)O)NC(=O)[C@@H]1CCCN1C(=O)[C@H](CCCCNC(=O)CCCCCNC(=O)CC[C@H](NC(=O)CCCCCCCCCCCCCCCCC(=O)O)C(=O)O)NC(=O)[C@H](C)NC(=O)[C@@H]1CCCN1C(=O)[C@H](C)NC(=O)CC(C)C)[C@@H](C)CC)C(=O)N[C@@H](CO)C(=O)N[C@@H](CC(C)C)C(=O)N[C@@H](CCCNC(=N)N)C(=O)N[C@@H](Cc1c[nH]cn1)C(=O)N[C@@H](Cc1ccc(O)cc1)C(=O)N[C@@H](Cc1ccc(O)cc1)C(=O)N[C@@H](CC(N)=O)C(=O)N[C@@H](Cc1c[nH]c2ccccc12)C(=O)N[C@@H](CC(C)C)C(=O)N[C@H](C(=O)N[C@@H](CCCNC(=N)N)C(=O)N[C@@H](CCC(N)=O)C(=O)N[C@@H](CCCNC(=N)N)C(=O)N[C@@H](Cc1ccc(O)cc1)C(N)=O)[C@@H](C)O) [Compound 195] | 0.197 | > 5000 | > 5000 | > 5000 | 0.78 |  |  |
| Isovaleryl-APEK([Ahx-γGlu-C18 diacid])PEADATPEEIQRYYVALRHYYNWLTRQRY-NH2 (SMILES CC[C@H](C)[C@H](NC(=O)[C@H](CCC(=O)O)NC(=O)[C@H](CCC(=O)O)NC(=O)[C@@H]1CCCN1C(=O)[C@@H](NC(=O)[C@H](C)NC(=O)[C@H](CC(=O)O)NC(=O)[C@H](C)NC(=O)[C@H](CCC(=O)O)NC(=O)[C@@H]1CCCN1C(=O)[C@H](CCCCNC(=O)CCCCCNC(=O)CC[C@H](NC(=O)CCCCCCCCCCCCCCCCC(=O)O)C(=O)O)NC(=O)[C@H](CCC(=O)O)NC(=O)[C@@H]1CCCN1C(=O)[C@H](C)NC(=O)CC(C)C)[C@@H](C)O)C(=O)N[C@@H](CCC(N)=O)C(=O)N[C@@H](CCCNC(=N)N)C(=O)N[C@@H](Cc1ccc(O)cc1)C(=O)N[C@@H](Cc1ccc(O)cc1)C(=O)N[C@H](C(=O)N[C@@H](C)C(=O)N[C@@H](CC(C)C)C(=O)N[C@@H](CCCNC(=N)N)C(=O)N[C@@H](Cc1c[nH]cn1)C(=O)N[C@@H](Cc1ccc(O)cc1)C(=O)N[C@@H](Cc1ccc(O)cc1)C(=O)N[C@@H](CC(N)=O)C(=O)N[C@@H](Cc1c[nH]c2ccccc12)C(=O)N[C@@H](CC(C)C)C(=O)N[C@H](C(=O)N[C@@H](CCCNC(=N)N)C(=O)N[C@@H](CCC(N)=O)C(=O)N[C@@H](CCCNC(=N)N)C(=O)N[C@@H](Cc1ccc(O)cc1)C(N)=O)[C@@H](C)O)C(C)C) [Compound 184] | 0.232 | > 5000 | > 5000 | > 5000 | 0.64 |  |  |
